Publication doi:10.1101/2025.10.14.682262
Read-outs that look alike come from different tables or passages of the source.

T1: PAN 6 Cys to Ser (Arabidopsis thaliana, UniProt Q9SX27 1-452, C27S;C68S;C87S;C114S;C154S;C340S)
T1 sequence: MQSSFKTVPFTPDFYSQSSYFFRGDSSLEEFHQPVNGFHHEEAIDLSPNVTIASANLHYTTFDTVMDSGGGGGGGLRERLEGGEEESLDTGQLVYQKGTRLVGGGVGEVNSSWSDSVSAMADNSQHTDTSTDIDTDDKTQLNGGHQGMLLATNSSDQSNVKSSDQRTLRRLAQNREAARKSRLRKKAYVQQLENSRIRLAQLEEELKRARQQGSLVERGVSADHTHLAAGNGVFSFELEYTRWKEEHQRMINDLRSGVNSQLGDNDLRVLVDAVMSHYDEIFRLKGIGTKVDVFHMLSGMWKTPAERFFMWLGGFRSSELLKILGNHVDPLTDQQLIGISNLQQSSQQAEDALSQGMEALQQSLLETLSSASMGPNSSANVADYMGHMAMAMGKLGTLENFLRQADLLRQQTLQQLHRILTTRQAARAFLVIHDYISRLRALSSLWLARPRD

T2: PAN (…) WT (Arabidopsis thaliana, UniProt Q9SX27 1-452)
T2 sequence: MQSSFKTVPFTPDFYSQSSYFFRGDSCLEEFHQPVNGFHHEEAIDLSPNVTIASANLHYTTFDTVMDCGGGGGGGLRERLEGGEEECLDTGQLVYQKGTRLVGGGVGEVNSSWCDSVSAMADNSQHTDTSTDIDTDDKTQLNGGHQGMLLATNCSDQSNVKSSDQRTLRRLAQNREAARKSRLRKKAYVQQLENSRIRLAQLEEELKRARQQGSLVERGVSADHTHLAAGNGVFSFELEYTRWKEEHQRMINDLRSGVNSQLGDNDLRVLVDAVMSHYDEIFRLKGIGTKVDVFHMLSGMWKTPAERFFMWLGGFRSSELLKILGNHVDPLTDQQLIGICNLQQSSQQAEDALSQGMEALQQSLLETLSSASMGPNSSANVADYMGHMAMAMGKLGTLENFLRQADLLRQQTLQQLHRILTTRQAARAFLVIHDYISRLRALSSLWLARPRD

T3: PAN 5 Cys to Ser (Arabidopsis thaliana, UniProt Q9SX27 1-452, C27S;C68S;C87S;C114S;C154S)
T3 sequence: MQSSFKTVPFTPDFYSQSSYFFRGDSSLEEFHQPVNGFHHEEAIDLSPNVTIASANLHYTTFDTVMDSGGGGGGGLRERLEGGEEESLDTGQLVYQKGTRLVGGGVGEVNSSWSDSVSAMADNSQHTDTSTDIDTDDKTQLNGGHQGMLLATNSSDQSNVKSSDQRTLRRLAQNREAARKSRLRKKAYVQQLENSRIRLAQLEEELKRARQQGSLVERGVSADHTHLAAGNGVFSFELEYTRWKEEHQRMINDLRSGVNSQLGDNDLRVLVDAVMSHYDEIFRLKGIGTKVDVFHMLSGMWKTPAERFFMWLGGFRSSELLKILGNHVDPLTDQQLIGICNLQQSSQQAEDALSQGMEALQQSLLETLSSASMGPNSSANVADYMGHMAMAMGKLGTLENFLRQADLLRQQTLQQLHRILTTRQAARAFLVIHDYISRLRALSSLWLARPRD


Assays:
Test in all cases: EMSA
[1] = molecular target: T1, PAN 6 Cys to Ser
[2] = molecular target: T2, PAN (…) WT
[3] = molecular target: T3, PAN 5 Cys to Ser
[4] = molecular target: T2, PAN (…) WT; remark: listed apart in the source

Binder | binding result [1] | binding result [2] | binding result [3] | binding result [4]
TGACGT WT probe (dsDNA) DNA 1: ATCAGATCTAATTGACGTGATAGCATATAGA DNA 2: TCTATATGCTATCACGTCAATTAGATCTGAT | binds | binds | binds | –
TGATTT mutated probe (M) (dsDNA) DNA 1: ATCAGATCTAATTGATTTGATAGCATATAGA DNA 2: TCTATATGCTATCAAATCAATTAGATCTGAT | – | – | – | no binding
